± gives the uncertainty stated by the source.
Experiment: protein stability index of a GFP-peptide fusion (yeast GPS) (PSI 1-4); higher = more stable; sorted into four equal gates, so the index is relative within each strain
In short: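 Yeast carrying a pooled library were grown to mid-log phase in leucine-free medium. Each library plasmid expresses Cherry and has a tiled 17-residue yeast protein peptide fused downstream of GFP. Cells were sorted into four equal gates by GFP/Cherry ratio, and plasmids from each gate were PCR-amplified, Illumina-sequenced and assigned to strains by barcode. Summing, across gates, the read frequency times the gate number gave each peptide's protein stability index.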

Sequence | protein stability index (doa10∆) | protein stability index (pdr5∆) | protein stability index (san1∆) | protein stability index (ubr1∆)
DGAYALSASWDKTLRLW [ASC1] | 3.28 ± 0.064 | 3.28 ± 0.057 | 3.18 ± 0.093 | 3.26 ± 0.036
IQIFRAHLWQKIHESIV [PRP8] | 2.4 ± 0.098 | 2.52 ± 0.09 | 2.59 ± 0.073 | 2.47 ± 0.074
DTIATSATPNAAAFSQQ [GAL11] | 2.6 ± 0.056 | 2.92 ± 0.064 | 2.76 ± 0.055 | 2.82 ± 0.039
LEDIYTSAHEAIRADPA [RPL5] | 3.04 ± 0.066 | 2.98 ± 0.082 | 3.13 ± 0.072 | 3.19 ± 0.051
IQQVVEYADNDEDKFKK [PRP28] | 3.06 ± 0.072 | 3.03 ± 0.093 | 3.24 ± 0.084 | 3.17 ± 0.047
EITQQEKGLNELSIRDV [SMC4] | 1.75 ± 0.11 | 2.64 ± 0.076 | 2.74 ± 0.089 | 1.85 ± 0.087
VKKGPVRLPTKVLKIST [RPS20] | 2.22 ± 0.062 | 2.22 ± 0.085 | 2.54 ± 0.058 | 2.37 ± 0.064
SLNNSDSLISGVKQKIT [BRR2] | 2 ± 0.085 | 1.87 ± 0.056 | 1.61 ± 0.16 | 2.31 ± 0.049
LKLLAKSHVLLATPVQF [BRR2] | 1.89 ± 0.068 | 1.4 ± 0.058 | 1.36 ± 0.11 | 1.44 ± 0.07
LCQINKCSTRGLSTDHT [YML103C/NUP188] |  | 2.47 ± 0.23 |  | 3.13 ± 0.18
QTIMKMGPLSNIAQMIP [SRP54] | 2.6 ± 0.081 | 2.67 ± 0.068 | 2.58 ± 0.08 | 2.99 ± 0.07
DNIGEIDESLFNLLILS [YCG1] | 2.96 ± 0.13 | 3.02 ± 0.11 | 2.31 ± 0.16 | 3.1 ± 0.14
YWYEQDSAKEWPQSKNC [RPB3] | 3.4 ± 0.12 | 3.3 ± 0.13 | 2.98 ± 0.13 | 3.43 ± 0.22
SSHLSDNDFIINDFKKI [POP5] | 3.06 ± 0.077 | 2.73 ± 0.067 | 2.75 ± 0.055 | 2.74 ± 0.036
PQFNSPYDSNNSNTNLN [SWI1] | 2.97 ± 0.054 | 3.03 ± 0.047 | 2.76 ± 0.052 | 2.9 ± 0.043
KESDDPSIPLVIIRRLK [POP1] | 3.12 ± 0.1 | 2.07 ± 0.064 | 3.06 ± 0.068 | 3.05 ± 0.093
AISLGLLKGSIDQVNEL [RPN9] | 3.36 ± 0.098 | 3.08 ± 0.066 | 3.16 ± 0.095 | 3.21 ± 0.039
KAPKIQRLVTPQRLQRK [RPS6A] | 2.77 ± 0.06 | 2.95 ± 0.049 | 2.91 ± 0.042 | 2.94 ± 0.039
ICDPVHKHREARGLTAT [RPL15A] | 3.49 ± 0.12 | 2.81 ± 0.14 | 2.93 ± 0.13 | 3.26 ± 0.099
SIEFAKREKRVFLKHSL [RPN6] | 3.24 ± 0.16 | 3.4 ± 0.17 | 2.87 ± 0.11 | 2.7 ± 0.098
AMANAPGNNIPYMNHKN [GAL11] | 2.83 ± 0.17 | 3.26 ± 0.19 | 2.6 ± 0.18 | 2.75 ± 0.16
QNSKEKNGLGLNFSTTA [MED2] | 2.9 ± 0.11 | 3.13 ± 0.064 | 2.94 ± 0.056 | 2.99 ± 0.089
PDRHVIFLAERRILPKP [RPS7B] | 2.81 ± 0.18 | 2.75 ± 0.14 | 2.99 ± 0.096 | 
PSLKDSSSNGGGSAKPS [RPC53] | 2.91 ± 0.18 | 2.82 ± 0.14 | 2.7 ± 0.27 | 2.93 ± 0.15
RELREVIELPLKNPEIF [RPT4] | 2.71 ± 0.14 | 3.73 ± 0.27 | 3.08 ± 0.18 | 3.06 ± 0.088

Sequence | protein stability index (doa10∆) | protein stability index (pdr5∆) | protein stability index (san1∆) | protein stability index (ubr1∆)
AASLGDMVMATVKKGKP [RPL23A] | 2.6 ± 0.1 | 1.96 ± 0.087 | 3.5 ± 0.099 | 2.91 ± 0.078
VTNIRRIIQDNISPRLV [RRP46] | 2.3 ± 0.09 | 2.63 ± 0.1 |  | 2.23 ± 0.074
LQCISQINQGVPSAKPL [SNF11] | 2.98 ± 0.092 | 1.95 ± 0.081 | 2.5 ± 0.083 | 2.41 ± 0.074
LNCGNGMGIGFIDHHAA [POP1] | 3.33 ± 0.086 | 3.13 ± 0.07 | 3.33 ± 0.07 | 3.42 ± 0.046
IRPLSKPMTAYARADTH [RRP6] | 2.74 ± 0.08 | 2.9 ± 0.083 | 2.8 ± 0.065 | 2.89 ± 0.14
DEVTIRRTVGLKKDDYQ [SMC3] | 2.66 ± 0.12 | 2.53 ± 0.099 | 2.32 ± 0.13 | 2.35 ± 0.071
KIEGVATPQDAQFYLGK [RPL33A] | 2.78 ± 0.086 | 3.12 ± 0.07 | 3.3 ± 0.063 | 3.25 ± 0.083
KKKTKKELELERKERED [SWI1] | 3.62 ± 0.12 | 3.37 ± 0.073 | 3.51 ± 0.051 | 3.31 ± 0.043
NYSSESYRNAFTNVLTK [YJL039C/NUP192] | 2.56 ± 0.047 | 2.38 ± 0.067 | 2.31 ± 0.067 | 2.48 ± 0.038
LQKRVIEHNLRVISEYY [RPN5] | 2.02 ± 0.12 | 2.27 ± 0.11 | 2.77 ± 0.069 | 1.37 ± 0.095
SFNIPRLTFKPWVVYLQ [YMR129W/POM152] | 1.2 ± 0.055 | 1.29 ± 0.055 | 1.09 ± 0.1 | 1.04 ± 0.042
SKICLSHFSLDQFITSL [ITC1] | 2.21 ± 0.06 | 2.86 ± 0.076 | 2.17 ± 0.081 | 2.69 ± 0.057
LENATWTMRIEGRLLDN [SNF12] | 2.64 ± 0.099 | 2.89 ± 0.12 | 2.65 ± 0.1 | 2.92 ± 0.066
TQLQRGGTSDMNYLLDN [CSI1] | 2.89 ± 0.097 | 2.82 ± 0.14 | 3.2 ± 0.078 | 3.02 ± 0.078
NLQTADTVIIFDTDWNP [SNF2] | 2.57 ± 0.14 | 2.96 ± 0.091 | 2.8 ± 0.078 | 2.34 ± 0.064
VTLNKYCSGNIYDFHKM [YJL039C/NUP192] | 2.7 ± 0.044 | 2.81 ± 0.051 | 2.91 ± 0.04 | 2.78 ± 0.041
TPAFGSNNTGNTAFGNS [YJL041W/NSP1] | 2.85 ± 0.11 | 3.13 ± 0.081 | 3.28 ± 0.067 | 3.08 ± 0.049
NIVSDAGANDTSNNETN [GRR1] | 2.79 ± 0.051 | 2.37 ± 0.2 | 1.82 ± 0.15 | 2.71 ± 0.099
SNEAAKPSFSFPGKPVD [YOR098C/NUP1] | 2.84 ± 0.048 | 2.96 ± 0.048 | 3.01 ± 0.038 | 2.95 ± 0.047
KGLKENDVAVEKTGKSA [BRR2] | 3.03 ± 0.15 |  | 2.73 ± 0.21 | 
RAGVTHVLSRLSYISAL [RET1] | 1.47 ± 0.074 | 1.26 ± 0.068 | 1.22 ± 0.11 | 1.23 ± 0.081
DLETLTMHTKTYAAEIA [RPL32] | 2.99 ± 0.061 | 2.74 ± 0.054 | 2.42 ± 0.053 | 2.63 ± 0.059
DSEIEISSEKLLTLTNA [RPP1A] | 2.99 ± 0.063 | 2.92 ± 0.073 | 2.93 ± 0.061 | 3.12 ± 0.055
LVDSLATFTSIELTSYE [RPN7] | 1.57 ± 0.057 | 2.08 ± 0.061 | 1.68 ± 0.057 | 1.72 ± 0.027
AQDEEIHKQIVIEMKRC [UBP6] |  |  | 3.26 ± 0.066 | 3.2 ± 0.14
